Patent publication US20240307496A1, “METHOD AND PHARMACEUTICAL COMBINATION FOR PREVENTING CANCER RECURRENCE” (priority 2021, published 2024)

B1: deglycosylated mIFN-α4: recombinant mouse interferon α4 (GenBank NP_034634) expressed in Pichia pastoris, glycosyl groups removed with glycosidase (protein, UniProt P07351 25-186, looked up)
Interferon alpha-4: CDLPHTYNLGNKRALTVLEEMRRLPPLSCLKDRKDFGFPLEKVDNQQIQKAQAILVLRDLTQQILNLFTSKDLSATWNATLLDSFCNDLHQQLNDLKACVMQEPPLTQEDSLLAVRTYFHRITVYLRKKKHSLCAWEVIRAEVWRALSSSTNLLARLSEEKE
modifications: deglycosylated
notes: recombinant mouse interferon α4 (GenBank NP_034634) expressed in Pichia pastoris, glycosyl groups removed with glycosidase
B2: PEG-mIFN-α4: deglycosylated recombinant mouse interferon α4 modified with 40kD Y-type polyethylene glycol succinimide ester (YPEG-NHS); SEQ ID NO: 6 (protein)
chain: CDLPHTYNLGNKRALTVLEEMRRLPPLSCLKDRKDFGFPLEKVDNQQIQKAQAILVLRDLTQQILNLFTSKDLSATWNATLLDSFCNDLHQQLNDLKACVMQEPPLTQEDSLLAVRTYFHRITVYLRKKKHSLCAWEVIRAEVWRALSSSTNLLARLSEEKE
modifications: 40kD Y-type PEG; deglycosylated; peginterferon murine alpha 4

Key:
[1] = tested on: transplanted liver cancer H22; experiment: Prevention of recurrence of transplanted liver cancer H22 in mice; type: in vivo, BALB/c mice; conditions: for anticancer activity / prevention of tumor recurrence (conclusion): H22 recurrence simulated with low-density tumor inoculation; for Tumor incidence: tumor volume ≥ 62.5 mm^3 positive, then stopped 103 days, PEG-mIFN-α4 1 μg/mouse s.c.
Text: After tumor treatment, the tumor load in patient's body is relatively low, so a low tumor grafting volume is used to simulate the state after tumor treatment. […] Three days after tumor inoculation, they were randomly divided into the following experiment groups: PEG-mIFN-α4 group (N=28, 14 females, 14 males). PEG-mIFN-α4 combined with gemcitabine group (N=28, 14 females, 14 males), normal saline control group (N=28, 14 females, 14 males), and gemcitabine only group (N=28, 14 females, 14 males).
PEG-mIFN-α4 was administered by subcutaneous injection on the back of the neck, with a dose of 1 microgram per mouse. Administration began on the day after grouping. In the PEG-mIFN-α4 group, PEG-mIFN-α4 was administered once a week for 9 weeks, and then stopped for 103 days. In the PEG-mIFN-α4 combined with gemcitabine group, PEG-mIFN-α4 and gemcitabine were administered once a week for 9 weeks, and then stopped for 103 days. In the gemcitabine alone group, gemcitabine was administered once a week for 9 weeks, and then stopped for 103 days. The normal saline control group was given an equal volume of normal saline. Gemcitabine was injected intraperitoneally at a dose of 60 mg/kg.
(§1) The tumor incidence of each group was calculated when the tumor volume was greater than or equal to 62.5 mm^3, which was determined as positive for tumor occurrence.

[2] = tested on: transplanted colorectal cancer CT26; experiment: Prevention of recurrence of transplanted colorectal cancer CT26 in mice; type: in vivo, BALB/c mice; conditions: for anticancer activity / prevention of tumor recurrence (conclusion): CT26 recurrence simulated with low-density tumor inoculation; for survival rate during the observation period / Tumor incidence: gemcitabine 60 mg/kg i.p.; for Tumor incidence: tumor volume ≥ 62.5 mm^3 positive, then stopped 56 days
Protocol: On the day after tumor inoculation, they were randomly divided into the following experiment groups: PEG-mIFN-α4 only group (N=20, 10 females and 10 males), normal saline control group (N=20, 10 females and 10 males), gemcitabine only group (N=20, 10 females and 10 males), and PEG-mIFN-α4 combined with gemcitabine group (N=20, 10 females and 10 males).
PEG-mIFN-α4 was administered by subcutaneous injection on the back of the neck, with a dose of 1 microgram per mouse. Administration began on the day after grouping. In the PEG-miFN-α4 only group, PEG-mFN-α4 was administered once a week for 12 times, and then stopped for 56 days. In the PEG-mIFN-α4 combined with gemcitabine group, both PEG-mIFN-α4 and gemcitabine were administered once a week for 12 consecutive times, and then stopped for 56 days. In the gemcitabine only group, gemcitabine was administered once a week for 12 times, and then stopped for 56 days. The normal saline control group was given an equal volume of normal saline. Gemcitabine was administered by intraperitoneal injection at a dose of 60 mg/kg.
as §1

[3] = tested on: mouse fibroblast/encephalomyocarditis vinis (L929/EMCV); experiment: L929/EMCV cytopathic inhibition method, specific activity; type: cell-based; conditions: commercial mIFN-α4 (R&D) as the standard
Protocol: The bacterial endotoxin content of the deglycosylated mIFN-α4 stock solution was determined by the Limulus reagent method as lower than 60 EU/mg, specific activity was determined as 5.4×10^8 U/mg by using the commercial mIFN-α4 (R&D, catalog number 12115-1) as the standard, and by using the mouse fibroblast/encephalomyocarditis vinis (L929/EMCV) cytopathic inhibition method.
The bacterial endotoxin content of the PEG-mIFN-α4 stock solution was determined by the Limulus reagent method as lower than 15 EU/mg. Specific activity was determined as 6.1×10^6 U/mg by using the commercial mIFN-α4 (R&D, catalog number 12115-1) as the standard, and by using the mouse fibroblast/encephalomyocarditis vinis (L929/EMCV) cytopathic inhibition method.

[4] = parameters: species or system BALB/c mice; conditions: mouse, in vivo, sc
Text: Note: In the pharmacokinetic analysis, for samples with blood concentration lower than the quantification lower limit, the sample before the peak blood concentration was counted as 0, and the sample after the peak was expressed as BLQ.

[5] = by day 166 after tumor inoculation, once a week for 9 weeks, gemcitabine 60 mg/kg i.p.
[6] = by day 134 after tumor inoculation, once a week for 12 times, PEG-mIFN-α4 1 μg/mouse s.c.
[7] = by day 134 after tumor inoculation, once a week for 12 times, PEG-mIFN-α4 1 μg/mouse s.c., listed as gemcitabine

Molecule | anticancer activity / prevention of tumor recurrence (conclusion) [1] | Median survival time (time after tumor inoculation, days) [1, 5] [days] | Tumor incidence [1, 5] [%] | Tumor incidence ([1]; by day 166 after tumor inoculation, once a week for 9 weeks, gemcitabine 60 mg/kg i.p., listed as gemcitabine) [%] | anticancer activity / prevention of tumor recurrence (conclusion) [2] | survival rate during the observation period [2, 6] | survival rate during the observation period [2, 7] [%] | Tumor incidence [2, 6] [%] | Tumor incidence [2, 7] [%] | specific activity [3] | tumor incidence compared with normal saline control group ([1]; H22, day 166) | tumor incidence compared with normal saline control group ([2]; CT26, day 134) | Median survival time (time after tumor inoculation, days) [2, 6] [days] | Cl_F—obs [4] [mL/h] | T1/2 [4] [h] | Tmax [4] [h] | Vz_F—obs [4] [mL] | elimination half-life (T1) [4] [h] | plasma concentration peak time (Tmax) [4] [h]
Nc1ccn([C@@H]2O[C@H](CO)[C@@H](O)C2(F)F)c(=O)n1 [Gemcitabine, reference compound] | could effectively prevent tumor recurrence | 93.0 | 57.1 | 57.1 | could effectively prevent tumor recurrence | period: 55.0% | 55.0 | 50.0 | 50 | – | – | – | – | – | – | – | – | – | –
B1 | – | – | – | – | – | – | – | – | – | 5.4×10^8 U/mg | – | – | – | – | – | – | – | – | –
B2 | could effectively prevent tumor recurrence | – | 32.1 | – | could effectively prevent tumor recurrence | – | – | 95 | – | 6.1×10^6 U/mg | lower | lower | 68.5 | 0.07 | 28.3 | 24.0 | 2.91 | 28.3 | 24
